Test results published in US20240270828A1 (UAB RESEARCH FOUNDATION, published 2024).

B1: 1250D2 (antibody, V domains shown)
VH: QVQLVQSGAEVKKPGASMKVSCKASGFTFSDYYMHWVRQAPRQGLEWMGLINPSGSGTAYAQNFQGRVTLTRDTSTSTLYMEMGSLTSDDTAVYYCARMDSSGSYDHWGQGTLVTVSS
VL: EIVLTQSPGTLSLSPGDRATLSCRASQTIRISYLAWYQQKPGQAPRLLVYGPSIRATGIPDRFSASGSGTDFTLTISRLEPEDFAVYYCQHYGSSPPRYTFGQGTKLEIK
notes: Recombinant human IgG1
B2: 1242G6 (antibody, V domains shown)
VH: QVQLVQSGGGVVQPGTSVRLSCAASGFTFSDHGMHWVRQAPGKGLEWVAVISFEGRNKFFADSVKGRSTISRDNSKNTVSMQVDNVRPEDTAVYYCAREHFDGSGSDYIGTRFFDYWGRGALVTVSS
VL: DIQLTQSPSFLSASVGDRVTITCRASQGISHYLTWYQQKPGKAPKLLIYRTSTLQSGVPSRFSGSGSGTVFTLTISSLQPEDLATYYCQHLDNFPTITFGQGTRLDLK
notes: Recombinant human IgG1
B3: 1242D11 (antibody, V domains shown)
VH: QVQLVQSGGGLVQPGGSLRLSCAVSGFTFSSYWMSWVRQAPGKGLEWVANIKQDGSEKYYVDSVKGRFTISRDNAKNSLFLQMNSLRAEDTAVYYCAREAVGYYYDSRGYHYSWYFDLWGRGTLVTVSS
VL: EIVLTQSPGTLSLSPGERATLSCRASQSVSSSYLVWYQQKPGQAPRLLIFGASSRATGIPDRFSGSGSGTDFTLTISSLEPEDFAVYYCQHYGSSPPMYTFGQGTKLEIK
B4: 1232D5 (antibody, V domains shown)
VH: EVQLVESGGGVVQPGGSLRLSCAASGFTFSNYGMHWVRQAPSKGLEWVAFIRYDGTNKYYADSVKGRFTISRDNSKNTLYLQINSLRAEDTAVYYCAIIAVAGDVNPDYWGQGTLVTVSS
VL: not shown
B5: 1242F4 (antibody, V domains shown)
VH: EVQLVQSGAEVKKPGTSVKVSCKASGNTVADYYMHWVRQAPRQGLEWVGLINPSGSGTAYAQNFQGRVTLTRDTSTSTLYMELGSLGSEDTAIYYCARMDSSGTYDVWGQGTLVTVSS
VL: EIVLTQSPGTLSLSPGERATLSCRASQSIRSGYLAWYQQKPGQAPRLLIRGASVKATGIPDRFSGSGSGTDFTLTISRLEPEDFVVYYCQHFASSPPRYTFGQGTKLEIK
notes: Recombinant human IgG1
B6: 1250E10 (antibody, V domains shown)
VH: EVQLVQSGAEVKKPGASVKFSCKASGFRVDGSYMHWVRQAPRGGLEWMGLINPSGSGTAYAQIFQGRVTLTRDTSTSTLYMELGSLGSEDTAMYYCARMDRSGSYDLWGQGTLVIVSS
VL: DIVLTQSPGNLSLSPGERATLSCRASESIRSAYIAWYQQKPGQAPRLLMRGASVRAAGIPDRFSGSGSGTDYALTISRLEPEDFAVYYCQHFASSPPRYTFGQGTKLEIK
notes: Recombinant human IgG1
B7: 1212C2 (antibody, V domains shown)
VH: QVQLVQSGAEVKKPGASVKVSCKASGYIFTDYFIHWVRQAPGQGLEWMGWINPNSGGTKYAQKFQGRVTMTRDTSISTVYMELSRLRSDDTAVHYCTRDLPLRTLYDSYGFDSWGQGTLVTVSS
VL: LPVLTQPASVSGSPGQSITISCTGTSSDVGSYNLVSWYQQHPGKAPKLMIYDVSKRPSGVSNRFSGSKSGNTASLTISGLQAEDEADYYCCSYAGNSIVFFGGGTKLTVL
B8: 1246C2 (antibody, V domains shown)
VH: QVQLVQSGGGLVKPGGSLRLSCAASGFTFKTHNMIWVRQAPGKVLEWVSSISGSSSYRYYGDSMKGRLTISRDNAKNSLYLEMNSLRAEDTAVYYCARDKGVGPTMVWYFDLWGRGTLVTVSS
VL: EIVLTQSPATLSLSPGDRATLSCRASQSLSISLAWYQQKPGQAPRLLIYDASIRATGVPPRFSGSGSGTDFTLTISSLEPEDFAVYYCQQWSGWPPRLTFGGGTKVEIK
B9: 1246H7 (antibody, V domains shown)
VH: QVQLQQSGPGLMKPSETLSLTCTVSGGSISSSSYYWGWIRQPPGKGLEWIGSIYYSGATYYNPSLKSRVTISVDTSKNQLSLKLSSVTAADTAVYYCVNRYYDYVWGSWGVDCWGQGTLVTVSS
VL: QAGLTQPRSVSGSPGQSVTISCTGTSSDVGGYNYVSWYQQHPGKAPKLMIYDVNKRPSGVPDRFSGSKSGNTASLTISGLQAEDEADYFCCSYAGSYTYWVFGGGTKLTVL
B10: 1242F11 (antibody, V domains shown)
VH: QVQLVQSGGGLVQPGGSLRLSCAASGFTFSSYWMTWVRQAPGKGLEWVANIKQDGREIYYVDSVKGRFTLSRDNAKNSLYLQMNSLRAEDTAVFYCARIRVFVSADSEGYHYYYGLDVWGQGTTVTVSP
VL: not shown
B11: 1235C10 (antibody, V domains shown)
VH: EVQLVESGGGLVQPGRSLRLSCTASGFTFGDHSMSWVRQAPGKGLEWVGFIRSKAYGGTTEYAASVKGRFTISRDDSKSIAYLQMNSLKIEDTAVYYCTRGLTGLDYWGQGMLVTVSS
VL: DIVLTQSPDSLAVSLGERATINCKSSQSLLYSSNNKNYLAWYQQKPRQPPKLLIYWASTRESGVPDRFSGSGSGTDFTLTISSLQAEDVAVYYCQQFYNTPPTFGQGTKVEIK
notes: Recombinant human IgG1

What was measured:
[1] = molecular target: T1, Spike of MERS-CoV on infected Vero E6 cells and live virus (MERS-CoV, UniProt K9N5Q8 18-1353); experiment: immunofluorescence on infected Vero E6 cells, 1 µg/ml
T1 sequence: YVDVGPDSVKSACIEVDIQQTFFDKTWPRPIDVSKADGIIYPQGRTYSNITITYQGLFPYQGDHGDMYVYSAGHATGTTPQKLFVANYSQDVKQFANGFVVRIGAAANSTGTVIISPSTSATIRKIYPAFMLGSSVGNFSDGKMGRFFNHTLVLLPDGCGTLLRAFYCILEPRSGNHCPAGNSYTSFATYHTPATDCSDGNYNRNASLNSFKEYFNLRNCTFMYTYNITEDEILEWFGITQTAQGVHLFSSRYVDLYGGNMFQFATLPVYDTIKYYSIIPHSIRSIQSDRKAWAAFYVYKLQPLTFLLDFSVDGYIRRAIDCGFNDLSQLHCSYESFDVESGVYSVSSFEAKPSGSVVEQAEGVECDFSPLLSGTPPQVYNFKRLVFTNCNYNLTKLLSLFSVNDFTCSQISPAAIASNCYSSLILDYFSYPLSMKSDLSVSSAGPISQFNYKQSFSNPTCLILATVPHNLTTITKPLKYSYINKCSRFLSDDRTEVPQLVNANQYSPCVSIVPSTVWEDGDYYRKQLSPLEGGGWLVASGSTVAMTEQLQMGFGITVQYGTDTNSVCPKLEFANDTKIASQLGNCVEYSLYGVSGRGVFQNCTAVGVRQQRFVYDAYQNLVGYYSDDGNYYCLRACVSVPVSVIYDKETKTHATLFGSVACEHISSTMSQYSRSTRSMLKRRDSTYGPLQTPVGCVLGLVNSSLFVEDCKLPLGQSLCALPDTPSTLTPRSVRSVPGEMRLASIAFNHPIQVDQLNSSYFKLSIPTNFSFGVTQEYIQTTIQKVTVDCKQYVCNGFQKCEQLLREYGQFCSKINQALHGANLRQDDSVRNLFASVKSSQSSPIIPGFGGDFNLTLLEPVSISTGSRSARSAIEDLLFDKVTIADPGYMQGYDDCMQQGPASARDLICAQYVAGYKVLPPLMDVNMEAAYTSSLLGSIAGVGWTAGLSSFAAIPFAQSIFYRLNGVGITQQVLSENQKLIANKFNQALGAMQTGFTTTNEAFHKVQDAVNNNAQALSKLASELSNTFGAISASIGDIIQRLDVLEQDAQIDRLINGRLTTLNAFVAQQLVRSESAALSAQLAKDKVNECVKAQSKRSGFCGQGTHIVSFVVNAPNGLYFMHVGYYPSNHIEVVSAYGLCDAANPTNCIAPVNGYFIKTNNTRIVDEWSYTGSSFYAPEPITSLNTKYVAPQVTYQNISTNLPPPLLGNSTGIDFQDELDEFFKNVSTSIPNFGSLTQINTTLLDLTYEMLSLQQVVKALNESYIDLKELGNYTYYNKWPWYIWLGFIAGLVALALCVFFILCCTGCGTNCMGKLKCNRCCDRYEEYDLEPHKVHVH

[2] = molecular target: Spike of SARS-CoV (Urbani) on infected Vero E6 cells and live virus (SARS-CoV, UniProt P59594 14-1255); experiment: as above
[3] = molecular target: T2, SARS-CoV-2 S1+S2 (40589-V08B1, Sino Biological) (SARS-CoV-2, UniProt P0DTC2 16-1213); experiment: ELISA, hmAb at 10 and 1 ug/ml in duplicate; AUC
[4] = molecular target: T3, SARS-CoV-2 S2 (40590-V08B, Sino Biological) (SARS-CoV-2, UniProt P0DTC2 686-1213); experiment: ELISA, hmAb at 10 and 1 ug/ml in duplicate; AUC
T3 construct: domain: S2

[5] = molecular target: T4, SARS-CoV-2 S1 (40591-V08H3, Sino Biological) (SARS-CoV-2, UniProt P0DTC2 16-685); experiment: ELISA, hmAb at 10 and 1 ug/ml in duplicate; AUC
T4 construct: domain: S1

[6] = molecular target: T2, SARS-CoV-2 S1+S2 (40589-V08B1, Sino …); experiment: ELISA on coated protein, anti-human IgG-HRP; AUC of the OD
[7] = molecular target: T3, SARS-CoV-2 S2 (40590-V08B, Sino …); experiment: as above
[8] = molecular target: T4, SARS-CoV-2 S1 (40591-V08H3, Sino …); experiment: as above
[9] = molecular target: Spike of live SARS-CoV-2 WT virus (SARS-CoV-2, UniProt P0DTC2 14-1273); experiment: cell-based or functional assay

Row | Binder | binding result [1] | binding result [2] | Binding AUC [3] | Binding AUC [4] | Binding AUC [5] | binding result [5] | Binding AUC [6] | Binding AUC [7] | Binding AUC [8] | Neutralization IC50 (µg/ml), Live Virus WT [9] [µg/mL] | binding result [8]
1 | B1 | binds | binds | 25.3 | 28.2 | 1.7 | no binding (tested: 10 ug/ml) | 25.3 | 28.2 | 1.7 | 2.36 | –
2 | B2 | – | – | 24.3 | 22.6 | 3.8 | – | 24.3 | 22.6 | 3.8 | > 50 | no binding
3 | B3 | – | – | 21.4 | 24.4 | 2.9 | – | 21.4 | 24.4 | 2.9 | – | no binding
4 | B4 | – | – | 11.7 | – | 1.1 | – | 11.7 | – | 1.1 | – | no binding
5 | B5 | binds | binds | 27 | 28.5 | 1.3 | no binding (tested: 10 ug/ml) | 27 | 28.5 | 1.3 | 36.5 | –
6 | B6 | – | – | 26 | 27.9 | 2.9 | no binding (tested: 10 ug/ml) | 26 | 27.9 | 2.9 | > 50 | –
7 | B7 | – | – | – | – | – | – | – | – | – | 0.003 | –
8 | B8 | – | – | 18 | 17.4 | 4.2 | no binding (tested: 10 ug/ml) | 18 | 17.4 | 4.2 | > 50 | –
9 | B9 | – | – | 5 | 4.8 | 1.7 | – | 5 | 4.8 | 1.7 | – | no binding
10 | B10 | – | – | – | – | – | – | 24.1 | – | 1.9 | – | –
11 | B11 | – | – | 25.2 | 26.9 | 0.8 | no binding (tested: 10 ug/ml) | 25.2 | 26.9 | 0.8 | 10.4 | –
